From publication PMC10786891, “Massively parallel profiling of RNA-targeting CRISPR-Cas13d”

T1: EsCas13d, nuclease-dead (Eubacterium siraeum, UniProt B0MS50, R295A;H300A;R849A;H854A)
T1 sequence: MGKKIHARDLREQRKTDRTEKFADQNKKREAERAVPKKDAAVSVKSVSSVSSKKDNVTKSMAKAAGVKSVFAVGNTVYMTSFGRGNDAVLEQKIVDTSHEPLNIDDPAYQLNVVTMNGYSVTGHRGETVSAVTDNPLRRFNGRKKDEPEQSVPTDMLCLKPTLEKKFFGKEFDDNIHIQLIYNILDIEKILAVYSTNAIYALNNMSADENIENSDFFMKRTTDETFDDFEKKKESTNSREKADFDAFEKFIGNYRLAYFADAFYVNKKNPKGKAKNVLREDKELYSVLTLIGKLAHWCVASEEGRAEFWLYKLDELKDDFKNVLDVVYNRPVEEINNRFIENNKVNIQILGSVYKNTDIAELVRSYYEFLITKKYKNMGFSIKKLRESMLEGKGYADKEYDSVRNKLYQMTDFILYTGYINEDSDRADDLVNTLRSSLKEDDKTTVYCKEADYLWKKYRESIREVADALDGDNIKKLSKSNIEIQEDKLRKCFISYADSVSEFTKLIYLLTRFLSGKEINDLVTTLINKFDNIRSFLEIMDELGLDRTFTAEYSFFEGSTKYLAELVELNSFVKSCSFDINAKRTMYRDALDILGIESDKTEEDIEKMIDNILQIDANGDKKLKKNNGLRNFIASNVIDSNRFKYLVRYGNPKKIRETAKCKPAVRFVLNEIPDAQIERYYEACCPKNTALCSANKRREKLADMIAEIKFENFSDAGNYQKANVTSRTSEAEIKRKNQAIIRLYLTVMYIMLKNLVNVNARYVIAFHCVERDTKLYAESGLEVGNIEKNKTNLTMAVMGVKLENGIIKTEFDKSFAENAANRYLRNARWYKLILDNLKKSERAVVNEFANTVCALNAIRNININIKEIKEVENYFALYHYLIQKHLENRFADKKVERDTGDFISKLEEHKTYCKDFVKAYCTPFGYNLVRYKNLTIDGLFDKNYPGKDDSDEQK


target: T1, EsCas13d, nuclease-dead; assay: crRNA (strand 1, pre-loaded); Mg2+; 40 mM Tris-HCl pH 7.5, 150 mM NaCl, 6 mM MgCl2, 1 mM DTT, 0.1% Tween-20, 0.2 mg/ml BSA; 25 C; 10 min per concentration, then washed; conditions: tags: His6-TwinStrep-SUMO cleaved; N-terminal SNAP kept (SNAP-Surface 488); label: 3' end held by stalled T7 RNA polymerase

Binder	Kd [nM]
target 3 insA 3' of 4,insU 3' of 4 (mixed) RNA 1: CACCCGUGCAAAAUUGCAGGGGUCUAAAACGACCUGAAUAUUUCAGAUCAAA RNA 2: GGGAAUGGAUCCACAUCUACGAAUUCGUUUUUGAUCUGAAAUAUUCAGAUGUCUGCAGAUCGGAAGAGCACACGU	44 ± 16
target 3 insC 3' of 7,insU 3' of 5 (mixed) RNA 1: CACCCGUGCAAAAUUGCAGGGGUCUAAAACGACCUGAAUAUUUCAGAUCAAA RNA 2: GGGAAUGGAUCCACAUCUACGAAUUCGUUUUUGAUCUGAAAUAUUCCAUGGUCUGCAGAUCGGAAGAGCACACGU	57 ± 7.5
target 3 insG 3' of 5,insG 3' of 1 (mixed) RNA 1: CACCCGUGCAAAAUUGCAGGGGUCUAAAACGACCUGAAUAUUUCAGAUCAAA RNA 2: GGGAAUGGAUCCACAUCUACGAAUUCGUUUUUGAUCUGAAAUAUUCAGGGUCGUGCAGAUCGGAAGAGCACACGU	37 ± 9.5
target 3 C16U (mixed) RNA 1: CACCCGUGCAAAAUUGCAGGGGUCUAAAACGACCUGAAUAUUUCAGAUCAAA RNA 2: GGGAAUGGAUCCACAUCUACGAAUUCGUUUUUGAUUUGAAAUAUUCAGGUCUGCAGAUCGGAAGAGCACACGU	82.5 ± 14
target 3 A9G,U22A (mixed) RNA 1: CACCCGUGCAAAAUUGCAGGGGUCUAAAACGACCUGAAUAUUUCAGAUCAAA RNA 2: GGGAAUGGAUCCACAUCUACGAAUUCGUUAUUGAUCUGAAAUGUUCAGGUCUGCAGAUCGGAAGAGCACACGU	27.6 ± 3.15
target 3 insA 3' of 7,insC 3' of 4 (mixed) RNA 1: CACCCGUGCAAAAUUGCAGGGGUCUAAAACGACCUGAAUAUUUCAGAUCAAA RNA 2: GGGAAUGGAUCCACAUCUACGAAUUCGUUUUUGAUCUGAAAUAUUACAGCGUCUGCAGAUCGGAAGAGCACACGU	48.5 ± 8
target 3 insA 3' of 22 (mixed) RNA 1: CACCCGUGCAAAAUUGCAGGGGUCUAAAACGACCUGAAUAUUUCAGAUCAAA RNA 2: GGGAAUGGAUCCACAUCUACGAAUUCGUUUAUUGAUCUGAAAUAUUCAGGUCUGCAGAUCGGAAGAGCACACGU	20.6 ± 3.4
target 3 G3C,U21A (mixed) RNA 1: CACCCGUGCAAAAUUGCAGGGGUCUAAAACGACCUGAAUAUUUCAGAUCAAA RNA 2: GGGAAUGGAUCCACAUCUACGAAUUCGUUUAUGAUCUGAAAUAUUCAGCUCUGCAGAUCGGAAGAGCACACGU	72.5 ± 13.5
target 3 insC 3' of 9,insG 3' of 7 (mixed) RNA 1: CACCCGUGCAAAAUUGCAGGGGUCUAAAACGACCUGAAUAUUUCAGAUCAAA RNA 2: GGGAAUGGAUCCACAUCUACGAAUUCGUUUUUGAUCUGAAAUACUUGCAGGUCUGCAGAUCGGAAGAGCACACGU	88 ± 21
target 3 insG 3' of 7,insU 3' of 6 (mixed) RNA 1: CACCCGUGCAAAAUUGCAGGGGUCUAAAACGACCUGAAUAUUUCAGAUCAAA RNA 2: GGGAAUGGAUCCACAUCUACGAAUUCGUUUUUGAUCUGAAAUAUUGCUAGGUCUGCAGAUCGGAAGAGCACACGU	20.1 ± 1.9
target 3 insA 3' of 8,insA 3' of 3 (mixed) RNA 1: CACCCGUGCAAAAUUGCAGGGGUCUAAAACGACCUGAAUAUUUCAGAUCAAA RNA 2: GGGAAUGGAUCCACAUCUACGAAUUCGUUUUUGAUCUGAAAUAUAUCAGGAUCUGCAGAUCGGAAGAGCACACGU	73 ± 18.5
target 3 insA 3' of 6,insC 3' of 3 (mixed) RNA 1: CACCCGUGCAAAAUUGCAGGGGUCUAAAACGACCUGAAUAUUUCAGAUCAAA RNA 2: GGGAAUGGAUCCACAUCUACGAAUUCGUUUUUGAUCUGAAAUAUUCAAGGCUCUGCAGAUCGGAAGAGCACACGU	7.7 ± 0.6
target 3 C1G,U10A (mixed) RNA 1: CACCCGUGCAAAAUUGCAGGGGUCUAAAACGACCUGAAUAUUUCAGAUCAAA RNA 2: GGGAAUGGAUCCACAUCUACGAAUUCGUUUUUGAUCUGAAAAAUUCAGGUGUGCAGAUCGGAAGAGCACACGU	43 ± 14
target 3 insC 3' of 5,insA 3' of 1 (mixed) RNA 1: CACCCGUGCAAAAUUGCAGGGGUCUAAAACGACCUGAAUAUUUCAGAUCAAA RNA 2: GGGAAUGGAUCCACAUCUACGAAUUCGUUUUUGAUCUGAAAUAUUCACGGUCAUGCAGAUCGGAAGAGCACACGU	23.1 ± 4.05
target 3 insU 3' of 9,insG 3' of 9 (mixed) RNA 1: CACCCGUGCAAAAUUGCAGGGGUCUAAAACGACCUGAAUAUUUCAGAUCAAA RNA 2: GGGAAUGGAUCCACAUCUACGAAUUCGUUUUUGAUCUGAAAUAUGUUCAGGUCUGCAGAUCGGAAGAGCACACGU	89.5 ± 24.5
target 3 insU 3' of 18,insC 3' of 11 (mixed) RNA 1: CACCCGUGCAAAAUUGCAGGGGUCUAAAACGACCUGAAUAUUUCAGAUCAAA RNA 2: GGGAAUGGAUCCACAUCUACGAAUUCGUUUUUGAUUCUGAAACUAUUCAGGUCUGCAGAUCGGAAGAGCACACGU	49 ± 9
target 3 U7C,U8G (mixed) RNA 1: CACCCGUGCAAAAUUGCAGGGGUCUAAAACGACCUGAAUAUUUCAGAUCAAA RNA 2: GGGAAUGGAUCCACAUCUACGAAUUCGUUUUUGAUCUGAAAUAGCCAGGUCUGCAGAUCGGAAGAGCACACGU	73.5 ± 12.5
target 3 insC 3' of 13,insG 3' of 2 (mixed) RNA 1: CACCCGUGCAAAAUUGCAGGGGUCUAAAACGACCUGAAUAUUUCAGAUCAAA RNA 2: GGGAAUGGAUCCACAUCUACGAAUUCGUUUUUGAUCUGACAAUAUUCAGGUGCUGCAGAUCGGAAGAGCACACGU	50 ± 11
target 3 insA 3' of 20,insC 3' of 20 (mixed) RNA 1: CACCCGUGCAAAAUUGCAGGGGUCUAAAACGACCUGAAUAUUUCAGAUCAAA RNA 2: GGGAAUGGAUCCACAUCUACGAAUUCGUUUUUACGAUCUGAAAUAUUCAGGUCUGCAGAUCGGAAGAGCACACGU	~110
target 3 U2C,C6A (mixed) RNA 1: CACCCGUGCAAAAUUGCAGGGGUCUAAAACGACCUGAAUAUUUCAGAUCAAA RNA 2: GGGAAUGGAUCCACAUCUACGAAUUCGUUUUUGAUCUGAAAUAUUAAGGCCUGCAGAUCGGAAGAGCACACGU	39 ± 7
target 3 C1G,U2A (mixed) RNA 1: CACCCGUGCAAAAUUGCAGGGGUCUAAAACGACCUGAAUAUUUCAGAUCAAA RNA 2: GGGAAUGGAUCCACAUCUACGAAUUCGUUUUUGAUCUGAAAUAUUCAGGAGUGCAGAUCGGAAGAGCACACGU	4.6 ± 0.7
target 3 insA 3' of 6,insU 3' of 3 (mixed) RNA 1: CACCCGUGCAAAAUUGCAGGGGUCUAAAACGACCUGAAUAUUUCAGAUCAAA RNA 2: GGGAAUGGAUCCACAUCUACGAAUUCGUUUUUGAUCUGAAAUAUUCAAGGUUCUGCAGAUCGGAAGAGCACACGU	5.25 ± 0.5
target 3 insU 3' of 22,insU 3' of 3 (mixed) RNA 1: CACCCGUGCAAAAUUGCAGGGGUCUAAAACGACCUGAAUAUUUCAGAUCAAA RNA 2: GGGAAUGGAUCCACAUCUACGAAUUCGUUUUUUGAUCUGAAAUAUUCAGGUUCUGCAGAUCGGAAGAGCACACGU	27.2 ± 4.15
target 3 C6G,U7G (mixed) RNA 1: CACCCGUGCAAAAUUGCAGGGGUCUAAAACGACCUGAAUAUUUCAGAUCAAA RNA 2: GGGAAUGGAUCCACAUCUACGAAUUCGUUUUUGAUCUGAAAUAUGGAGGUCUGCAGAUCGGAAGAGCACACGU	46.5 ± 4.5
target 3 C1A,U2A (mixed) RNA 1: CACCCGUGCAAAAUUGCAGGGGUCUAAAACGACCUGAAUAUUUCAGAUCAAA RNA 2: GGGAAUGGAUCCACAUCUACGAAUUCGUUUUUGAUCUGAAAUAUUCAGGAAUGCAGAUCGGAAGAGCACACGU	49 ± 6.5
target 3 U2G,U7G (mixed) RNA 1: CACCCGUGCAAAAUUGCAGGGGUCUAAAACGACCUGAAUAUUUCAGAUCAAA RNA 2: GGGAAUGGAUCCACAUCUACGAAUUCGUUUUUGAUCUGAAAUAUGCAGGGCUGCAGAUCGGAAGAGCACACGU	20.9 ± 2.45
target 1 insA 3' of 17,insG 3' of 3 (mixed) RNA 1: CACCCGUGCAAAAAUGCAGGGGUCUAAAACUGAGCGGAUAACCUCUCUAUGG RNA 2: GGGAAUGGAUCCACAUCUACGAAUUCGUACCAUAGAAGAGGUUAUCCGCUGCACCGAGAUCGGAAGAGCACACGU	10.9 ± 0.6
target 1 insA 3' of 22,insA 3' of 6 (mixed) RNA 1: CACCCGUGCAAAAAUGCAGGGGUCUAAAACUGAGCGGAUAACCUCUCUAUGG RNA 2: GGGAAUGGAUCCACAUCUACGAAUUCGUACACAUAGAGAGGUUAUCCAGCUCACCGAGAUCGGAAGAGCACACGU	22.2 ± 1.3
